Results: US20100285988A1 (published 2010)

B1: Aβ17-23 heptapeptide with the Flemish mutation (A21G) (peptide)
peptide: LVFFGED
B2: Aβ17-23 heptapeptide with the Italian mutation (E22K) (peptide)
peptide: LVFFAKD
B3: Aβ17-23 heptapeptide with the Iowa mutation (D23N) (peptide)
peptide: LVFFAEN
B4: Aβ17-23 heptapeptide with the Dutch mutation (E22Q) (peptide)
peptide: LVFFAQD
B5: Aβ17-23 heptapeptide with the Arctic mutation (E22G) (peptide)
peptide: LVFFAGD

target: γ-secretase (human; HeLa cell membrane / solubilized HeLa membrane; endogenous in HEK293 cells) (human, UniProt P49768 1-467; Q92542 34-709; Q9NZ42 1-101; Q96BI3 1-265)

In order of falling IC50:
1. B1  5.27 µM
2. B5  3.89 µM
3. B3  2.94 µM
4. B2  2.13 µM
5. B4  2.12 µM
